Experimental data from publication doi:10.1101/2025.03.21.644421 (bioRxiv, 2025).

Legend:
cryo-EM structure = target: the molecule itself; experiment: cryo-EM structure
[1] = target: T1, LetA (N-terminal 6xHis2xQH-TEV tagged LetA) (E. coli, UniProt P0AD03 1-427); experiment: cryo-EM structure
T1 sequence (looked up): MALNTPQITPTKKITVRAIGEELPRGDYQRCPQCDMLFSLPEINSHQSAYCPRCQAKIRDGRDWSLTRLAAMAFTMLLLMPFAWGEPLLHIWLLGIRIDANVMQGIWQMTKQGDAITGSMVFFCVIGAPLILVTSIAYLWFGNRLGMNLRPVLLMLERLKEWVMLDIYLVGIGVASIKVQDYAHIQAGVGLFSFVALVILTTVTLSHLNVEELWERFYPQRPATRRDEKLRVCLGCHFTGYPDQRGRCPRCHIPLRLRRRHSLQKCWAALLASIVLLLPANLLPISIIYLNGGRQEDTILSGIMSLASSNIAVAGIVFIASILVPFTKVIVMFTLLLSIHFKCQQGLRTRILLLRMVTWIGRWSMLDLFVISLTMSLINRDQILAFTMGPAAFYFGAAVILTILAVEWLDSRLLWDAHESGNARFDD

B1: LetB (Lipophilic Envelope-spanning Tunnel B), untagged (natural protein, E. coli, UniProt P76272 1-877, looked up)
chain: MSQETPASTTEAQIKNKRRISPFWLLPFIALMIASWLIWDSYQDRGNTVTIDFMSADGIVPGRTPVRYQGVEVGTVQDISLSDDLRKIEVKVSIKSDMKDALREETQFWLVTPKASLAGVSGLDALVGGNYIGMMPGKGKEQDHFVALDTQPKYRLDNGDLMIHLQAPDLGSLNSGSLVYFRKIPVGKVYDYAINPNKQGVVIDVLIERRFTDLVKKGSRFWNVSGVDANVSISGAKVKLESLAALVNGAIAFDSPEESKPAEAEDTFGLYEDLAHSQRGVIIKLELPSGAGLTADSTPLMYQGLEVGQLTKLDLNPGGKVTGEMTVDPSVVTLLRENTRIELRNPKLSLSDANLSALLTGKTFELVPGDGEPRKEFVVVPGEKALLHEPDVLTLTLTAPESYGIDAGQPLILHGVQVGQVIDRKLTSKGVTFTVAIEPQHRELVKGDSKFVVNSRVDVKVGLDGVEFLGASASEWINGGIRILPGDKGEMKASYPLYANLEKALENSLSDLPTTTVSLSAETLPDVQAGSVVLYRKFEVGEVITVRPRANAFDIDLHIKPEYRNLLTSNSVFWAEGGAKVQLNGSGLTVQASPLSRALKGAISFDNLSGASASQRKGDKRILYASETAARAVGGQITLHAFDAGKLAVGMPIRYLGIDIGQIQTLDLITARNEVQAKAVLYPEYVQTFARGGTRFSVVTPQISAAGVEHLDTILQPYINVEPGRGNPRRDFELQEATITDSRYLDGLSIIVEAPEAGSLGIGTPVLFRGLEVGTVTGMTLGTLSDRVMIAMRISKRYQHLVRNNSVFWLASGYSLDFGLTGGVVKTGTFNQFIRGGIAFATPPGTPLAPKAQEGKHFLLQESEPKEWREWGTALPK
stoichiometry N (cryo-EM structure): 6 | stoichiometry N [1]: 6 LetB per LetA
